Patent US11919930B2, “Odorant receptor co-receptor” (Sumitomo Chemical Company, Limited, priority 2016, dated 2024)
“Also recorded” adds a separate entry of the source.

Test system: odorant receptor AaOR8
Assay: Aequorin luminescence measurement in HEK293FT cells co-expressing AaOR8 and a co-receptor, 1-octen-3-ol added
Format: cell-based
Details: 1-octen-3-ol 10^-4 to 10^-10 M; for intensity of response (relative amount of luminescence) to 1-octen-3-ol: compared to cells that expressed original AaORCO or DmORCO
Experimental: HEK293FT cells (purchased from invitrogen, Inc.) were inoculated into 10-cm Petri dishes at a concentration of 3×10^6 cells/Petri dish, and the cells were cultured in DMEM medium containing 10% FBS (manufactured by Nacalai Tesque, Inc.) for about 24 hours under the conditions of 37° C. and 5% CO2. 3 μg of any one of the co-receptor expression plasmids produced, 1.5 μg of any one of the odorant receptor expression plasmids produced, and 8 μg of Aequorin expression plasmid were mixed with 12.5 μL of Plus reagent and 31.25 μL of LIPOFECTAMINE LTX (manufactured by Invitrogen, Inc.), and the mixture was maintained for 30 minutes. Subsequently this liquid mixture was transfected into the above-mentioned cells. After 4 hours from the initiation of transfection, the cells were inoculated onto a 96-well plate at a concentration of 9×10^4 cells/well, and the cells were cultured in DMEM medium containing 10% FBS (manufactured by Nacalai Tesque, Inc.) for about 24 hours under the conditions of 37° C. and 5% CO2. Thereby, transformed cells having a co-receptor expression plasmid, an odorant receptor expression plasmid, and an aequorin expression plasmid transiently incorporated therein were obtained.
Aequorin is activated when hound to a calcium ion, and oxidizes a substrate such as coelenterazine, thus emitting light. […] Therefore, whether an odorant receptor complex functions an ion channel as a result of addition of a substance to be detected, can be measured from the change in the amount of luminescence.
A culture fluid of the transformed cells was removed, and the medium was exchanged with Hanks-HEPES (20 mM, pH 7.4) including Assay buffer (0.5 μM coelenterazine h (manufactured by Promega Corporation) and 0.3% BSA. culture system was left to stand for another 4 hours at room temperature. Subsequently, a substance to be detected, which corresponded to an odorant receptor, was added to the cell culture using FLEXSTATION 3 (manufactured by Molecular Devices, LLC), and at the same time, the amount of luminescence of the cells was measured. As a control substance, the amount of luminescence in the cells to which dimethyl sulfoxide had been added was designated as 1, and the amount or luminescence of cells to which the substance to be detected was added was calculated as a relative value.
(§1) Cells into which: • an expression plasmid of odorant receptor AaOR8; • an expression plasmid of any one of co-receptor AaORCO or DmORCO, or various chimeric co-receptors Dm-AaORCO having different positions of recombination [Dm(NT-EC1)AaORCO, Dm(NT-TM3)AaOROC, Dm(NT-TM4)AaORCO, Dm(NT-TM5)AaORCO, or Dm(NT-TM6)AaORCO]; and • an aequorin expression plasmid had been incorporated were used, and the amount of luminescence was measured as explained above. 1-Octen-3-ol was used as a substance to be detected, and 1-octen-3-ol was added to the culture fluid at a concentration of 10^−4 M, 10^−5 M, 10^−6 M, 10^−7 M, 10^−8 M, 10^−9 M, or 10^−10 M. The results are presented in FIG. 1.
as §1, with “AmORCO” for “AaORCO”, “Dm-AmORCO” for “Dm-AaORCO”, “[Dm(NT-TM3)AmOROC, Dm(NT-TM4)AmORCO, Dm(NT-TM5)AmORCO,” for “[Dm(NT-EC1)AaORCO, Dm(NT-TM3)AaOROC, Dm(NT-TM4)AaORCO, Dm(NT-TM5)AaORCO,”, “Dm(NT-TM6)AmORCO];” for “Dm(NT-TM6)AaORCO];”, “2. […]” for “1.”

Molecule | intensity of response (relative amount of luminescence) to 1-octen-3-ol | other results
Aa(NT-TM4)AmORCO: chimeric co-receptor: NT to TM4 from Aedes co-receptor, IC2 to C-terminal domain from Apis co-receptor; SEQ ID NO:108 (protein) MNVQPTKYHGLVLDLMPNIRLMQGFGHFLFRYVNGPVLIRKLYSWWNLIMILLQYFAIMGNLVMNTGDVNELTANTITTLFFTHSVTKFIYVAVNSEHFYRTLGIWNQPNSHSLFAESDARYHSIALAKMRKLLVMVMVTTVLSVVAWITITFFGDSVKNVFDKETNETYTVEIPRLPIKAWYPWDAMSGVPYFFSFIYQAYFLLFSMCQANLADVMFCSWLLFTCEQLQHLKNIMKPLMEFSATLDTVVPNSGELFKAGSAEQPKEQEPLPPVTPPQGENMLDMDLRGIYSNRTDFTTTFRPTAGMTFNGGVGPNGLTKKQEMLVRSAIKYWVERHKHIVRLVTAIGDAYGVALLLHMLTTTITLTLLAYQATKIHAVDTYAASVVGYLLYSLGQVFMLCIFGNRLIEESSSVMEAAYSCHWYDGSEEAKTFVQIVCQQCQKAMSISGAKFFTVSLDLFASVLGAMVTYFMVLVQLK |  | response (relative amount of luminescence) to 1-octan-3-ol (compared to cells that expressed original AaORCO or AmORCO): responded more strongly to 1-octan-3-ol
Aa(TM1-4Dm)AaORCO: chimeric co-receptor: first to fourth transmembrane domains from Drosophila co-receptor, other domains from Aedes co-receptor; SEQ ID NO:82 (protein) MNVQPTKYHGLVLDLMPNIRLMQGFGHFLFRYVNGPVLIKKVYSSVHLVFLLMQFTFILVNMAMNTGDVNELTANTITTLFFTHCITKFIYLAVNSEHFYRTLGIWNQPNSHSLFAESDARYHSIALAKMRKLFFLVMLTTVASATAWTTITFFGDSVKNVFDKETNETYTVEIPRLPIKAWYPWDAMHGMFYMISFAFQIYYVLFSMIHSNLCDVMFCSWLIFACEQLQHLKGIMRPLMELSATLDTYRPNSAALFRVASAGSKSELILNEEKDPDTKDFDLNGIYNSKADWGAQFRAPSTLQTFGDNGINGNPNGLTKKQELMVRSAIKYWVERHKHVVRLVSAIGETYGAALLLHMLTSTIKLTLLAYQATKIDALNVYGLTVIGYLVYALAQVFLFCIFGNRLIEESSSVMEAAYSCHWYDGSEEAKTFVQIVCQQCQKAMTISGAKFFTVSLDLFASVLGAVVTYFMVLVQLK | the intensity of response to 1-octen-3-ol was decreased | 
Dm(TM1-4Aa)AaORCO: chimeric co-receptor: amino-terminal domain, EC1, IC1, EC2 from Drosophila co-receptor, other domains from Aedes co-receptor; SEQ ID NO:86 (protein) MTTSMQPSKYTGLVADLMPNIRAMKYSGLFMHNFTGGSAFMRKLYSWWNLIMILLQYFAIMGNLVLNAEEVNELSGNTITTLFFTHSVTKFIYVAVNQKNFYRTLNIWNQVNTHPLFAESDARYHSIALAKMRKLLVMVMVTTVLSVVAWITITFFGDSVKMVVDHETNSSIPVEIPRLPIKSFYPWNASSGVPYFFSFIYQAYFLLFSMCQANLADVMFCSWLLFTCEQLQHLKGIMRPLMELSATLDTYRPNSAALFRVASAGSKSELILNEEKDPDTKDFDLNGIYNSKADWGAQFRAPSTLQTFGDNGINGNPNGLTKKQELMVRSAIKYWVERHKHVVRLVSAIGETYGAALLLHMLTSTIKLTLLAYQATKIDALNVYGLTVIGYLVYALAQVFLFCIFGNRLIEESSSVMEAAYSCHWYDGSEEAKTFVQIVCQQCQKAMTISGAKFFTVSLDLFASVLGAVVTYFMVLVQLK | the intensity of response to 1-octen-3-ol was decreased | 
Dm(NT-TM4)AaORCO: chimeric co-receptor: NT to TM4 (residues 1-234) from Drosophila co-receptor, IC2 to C-terminal domain from Aedes co-receptor; SEQ ID NO:71 (protein) MTTSMQPSKYTGLVADLMPNIRAMKYSGLFMHNFTGGSAFMKKVYSSVHLVFLLMQFTFILVNMALNAEEVNELSGNTITTLFFTHCITKFIYLAVNQKNFYRTLNIWNQVNTHPLFAESDARYHSIALAKMRKLFFLVMLTTVASATAWTTITFFGDSVKMVVDHETNSSIPVEIPRLPIKSFYPWNASHGMFYMISFAFQIYYVLFSMIHSNLCDVMFCSWLIFACEQLQHLKGIMRPLMELSATLDTYRPNSAALFRVASAGSKSELILNEEKDPDTKDFDLNGIYNSKADWGAQFRAPSTLQTFGDNGINGNPNGLTKKQELMVRSAIKYWVERHKHVVRLVSAIGETYGAALLLHMLTSTIKLTLLAYQATKIDALNVYGLTVIGYLVYALAQVFLFCIFGNRLIEESSSVMEAAYSCHWYDGSEEAKTFVQIVCQQCQKAMTISGAKFFTVSLDLFASVLGAVVTYFMVLVQLK | responded more strongly to 1-octen-3-ol; also recorded: the intensity of response to 1-octen-3-ol was higher | 
Dm(NT-636)AaORCO: chimeric co-receptor: N-terminus to residue 212 from Drosophila co-receptor, residue 213 to C-terminus from Aedes co-receptor; SEQ ID NO:78 (protein) MTTSMQPSKYTGLVADLMPNIRAMKYSGLFMHNFTGGSAFMKKVYSSVHLVFLLMQFTFILVNMALNAEEVNELSGNTITTLFFTHCITKFIYLAVNQKNFYRTLNIWNQVNTHPLFAESDARYHSIALAKMRKLFFLVMLTTVASATAWTTITFFGDSVKMVVDHETNSSIPVEIPRLPIKSFYPWNASHGMFYMISFAFQIYYVLFSMIHANLADVMFCSWLLFTCEQLQHLKGIMRPLMELSATLDTYRPNSAALFRVASAGSKSELILNEEKDPDTKDFDLNGIYNSKADWGAQFRAPSTLQTFGDNGINGNPNGLTKKQELMVRSAIKYWVERHKHVVRLVSAIGETYGAALLLHMLTSTIKLTLLAYQATKIDALNVYGLTVIGYLVYALAQVFLFCIFGNRLIEESSSVMEAAYSCHWYDGSEEAKTFVQIVCQQCQKAMTISGAKFFTVSLDLFASVLGAVVTYFMVLVQLK | the intensity of response to 1-octen-3-ol was decreased | 
Dm(792)AaORCO: chimeric co-receptor: N-terminus to residue 264 from Drosophila co-receptor, residue 265 to C-terminus from Aedes co-receptor; SEQ ID NO:74 (protein) MTTSMQPSKYTGLVADLMPNIRAMKYSGLFMHNFTGGSAFMKKVYSSVHLVFLLMQFTFILVNMALNAEEVNELSGNTITTLFFTHCITKFIYLAVNQKNFYRTLNIWNQVNTHPLFAESDARYHSIALAKMRKLFFLVMLTTVASATAWTTITFFGDSVKMVVDHETNSSIPVEIPRLPIKSFYPWNASHGMFYMISFAFQIYYVLFSMIHSNLCDVMFCSWLIFACEQLQHLKGIMKPLMELSASLDTYRPNSAALFRSLSAGSKSELILNEEKDPDTKDFDLNGIYNSKADWGAQFRAPSTLQTFGDNGINGNPNGLTKKQELMVRSAIKYWVERHKHVVRLVSAIGETYGAALLLHMLTSTIKLTLLAYQATKIDALNVYGLTVIGYLVYALAQVFLFCIFGNRLIEESSSVMEAAYSCHWYDGSEEAKTFVQIVCQQCQKAMTISGAKFFTVSLDLFASVLGAVVTYFMVLVQLK |  | intensity of response to 1-octen-3-ol (compared to cells that expressed original AaORCO): the intensity of response to 1-octen-3-ol was decreased
